In publication doi:10.1101/2025.11.18.688960:

Experiments:
Test in all cases: fluorescence anisotropy
[1] = test system: Protamine 1 AA (P1 S43AT45A) (mouse)
[2] = test system: Protamine 1 EE (P1 S43ET45E) (mouse)
[3] = test system: Protamine 1 WT (P1) (mouse)

## 99 bp fluorescent dsDNA
[1]
  Kd: 610 nM
[2]
  Kd: 1100 nM
[3]
  Kd: 430 nM
